Key:
[1] = biological target: ASH2L, Q9UBL3-3
[2] = biological target: ASH2L, Q9UBL3-3; remark: listed apart in the source

Sequence of ASH2L, Q9UBL3-3 (Q9UBL3 95-628): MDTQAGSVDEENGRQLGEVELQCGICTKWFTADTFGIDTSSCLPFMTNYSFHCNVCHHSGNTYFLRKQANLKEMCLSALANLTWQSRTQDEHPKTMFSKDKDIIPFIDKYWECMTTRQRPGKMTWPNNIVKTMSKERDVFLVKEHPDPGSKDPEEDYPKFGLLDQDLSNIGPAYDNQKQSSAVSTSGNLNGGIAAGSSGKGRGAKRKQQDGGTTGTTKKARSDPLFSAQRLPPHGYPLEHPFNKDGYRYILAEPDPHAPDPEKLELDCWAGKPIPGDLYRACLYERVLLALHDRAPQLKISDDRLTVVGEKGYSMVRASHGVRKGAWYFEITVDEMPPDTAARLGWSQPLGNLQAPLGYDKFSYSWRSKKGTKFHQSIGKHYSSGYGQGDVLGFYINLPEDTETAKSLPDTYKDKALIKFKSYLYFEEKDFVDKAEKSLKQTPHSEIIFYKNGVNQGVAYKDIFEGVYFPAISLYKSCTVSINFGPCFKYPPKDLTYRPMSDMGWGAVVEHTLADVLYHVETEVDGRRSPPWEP

Substance | effect of a mutation on the interaction [1] | effect of a mutation on the interaction [2]
Histone-lysine N-methyltransferase 2B (Homo sapiens), Q9UMN6 R2610A | disrupting interaction strength | 
Histone-lysine N-methyltransferase 2C (Homo sapiens), Q8NEZ4 R4806A |  | disrupting interaction strength
